From US20170058007A1 (University of California, published 2017)

Molecular target: the molecule itself
Assay: AFM imaging on mica (self-association, not fibrils)
Description: Pieces of 8.0 mm×8.0 mm×0.5 mm muscovite mica were cut and mounted on standard microscope slides using composite epoxy glue (5 Minute Epoxy, ITW Performance Polymers and Fluids, FL. USA). Before protein deposition, the top layer(s) of mica was peeled mechanically to expose fresh (0001) surfaces. For SBAFP-m1 or wild type WT SBAFP, 20 μl of sample in Tris buffer (100 mM, pH8.0) were deposited on the freshly exposed mica(0001) surfaces. After 5 min incubation, the surfaces were washed three times with 200 μl Tris buffer (100 mM, pH 8.0) to remove weakly bound proteins and fibrils. The samples were immediately imaged in the Tris buffer. Sample preparation for RGAFP-m1 or WT RGAFP followed similar protocols except for the surface coating and imaging medium. The freshly cleaved mica(0001) surfaces were coated with poly-L-Lysine, by dropping 80 μl 0.1% (w/v) poly-L-Lysine (Sigma P8920, MW 150-300 kDa) onto the surface, incubating for 5 min, then washing with MilliQ water. The surfaces were dried with clean air before protein deposition. The samples were imaged under ambient conditions.
The formation of fibers by SBAFP-m1 was analyzed after 48 h and 3 weeks of incubation at 37° C. […] The expansion (FIG. 10A inset) allows an accurate height determination of 1.5-3 nm, but predominantly between 2.5 and 3 nm. […]

B1: WT SBAFP (other)
chain: DGTCVNTNSQITANSQCVKSTATNCYIDNSQLVDTSICTRSQYSDANVKKSVTTDCNIDKSQVYLTTCTGSQYNGIYIRSSTTTGTSISGPGCSISTCTITRGVATPAAACKISGCSLSAM
notes: Gene in pET20b from the Davies lab, expressed in E. coli; also called wild type spruce budworm antifreeze protein; isozyme 501
binding result: binds
